Where a chain is given by its changes, count along the chain named. In names and notes the source's numbering stands. Several values for one entry are separate records, joined by “and”; a condition that tells them apart may be missing. Equal values may be shown once.

We go through eight molecules from paper PMC4019985, “Mitochondrial thiol oxidase Erv1: both shuttle cysteine residues are required for its function with distinct roles” (Biochemical Journal, 2014).

Sequences and labels used below:
B1: Erv1^CXXS (Erv1C33S) (enzyme, S. cerevisiae, UniProt P27882 1-189, looked up)
chain: MKAIDKMTDNPPQEGLSGRKIIYDEDGKPCRSSNTLLDFQYVTGKISNGLKNLSSNGKLAGTGALTGEASELMPGSRTYRKVDPPDVEQLGRSSWTLLHSVAASYPAQPTDQQKGEMKQFLNIFSHIYPCNWCAKDFEKYIRENAPQVESREELGRWMCEAHNKVNKKLRKPKFDCNFWEKRWKDGWDE
notes: Erv1, S. cerevisiae, full length, second shuttle cysteine changed to serine
B2: Erv1 redox active-site disulfide double cysteine mutant (C130/C133S) (enzyme, S. cerevisiae, UniProt P27882 1-189, looked up)
chain: B1 chain with S33C, C130S, C133S
notes: Erv1, S. cerevisiae, full length, both active-site cysteines changed to serine; also called Erv1^CCSS
B3: Erv1 (essential for respiration and viability 1), wild-type (enzyme, S. cerevisiae, UniProt P27882 1-189, looked up)
chain: B1 chain with S33C
notes: Erv1, FAD-dependent thiol oxidase of the mitochondrial intermembrane space, S. cerevisiae, full length; Construct in pET24a(+) via Nde1/Xho1; also called WT Erv1; WT
B4: Mia40^CPS, core domain Mia40c (amino acids 284-403) with the second cysteine of the CPC motif changed to serine (domain or fragment, S. cerevisiae, UniProt P36046 284-403, looked up)
chain: AYNPDTGEINWDCPSLGGMAHGPCGEEFKSAFSCFVYSEAEPKGIDCVEKFQHMQDCFRKYPEHYAEQLKETSDDEEPQDKVKVNTIESAPNVSSAKENAAKKAEQSDVKKEPLNEESKP
notes: Mia40, S. cerevisiae, core domain Mia40c, residues 284-403 (~15 kDa); second cysteine of the CPC motif (Cys298) changed to serine; source: purified (glutathione-Sepharose 4B, thrombin cleavage, Superdex 75)
B5: Erv1^SXXC (Erv1C30S) (enzyme, S. cerevisiae, UniProt P27882 1-189, looked up)
chain: B1 chain with C30S, S33C
notes: Erv1, S. cerevisiae, full length, first shuttle cysteine changed to serine; Found as a tetramer (peak 1, yellow) and a dimer (peak 2, black, charge-transfer complex)
B6: Mia40^SPC, core domain Mia40c (amino acids 284-403) with the first cysteine of the CPC motif changed to serine (domain or fragment, S. cerevisiae, UniProt P36046 284-403, looked up)
chain: B4 chain with C13S, S15C
notes: Mia40, S. cerevisiae, core domain Mia40c, residues 284-403 (~15 kDa); first cysteine of the CPC motif (Cys296) changed to serine; source: purified (glutathione-Sepharose 4B, thrombin cleavage, Superdex 75)

One data set has as its target Cys30 (UniProt position 30, EDGKPCRSSNT). The data set can be described thus: chemical modification (monobromobimane alkylation) with fluorescence detection. The settings on record: 25°C; I = 0.15 M (constant ionic strength buffers, 120 mM NaCl); 15 mM acetic acid, 15 mM Mes and 30 mM Tris (pH 3.5–9.0), or 30 mM Aces, 15.6 mM Tris and 15.6 mM ethanolamine (pH 5.7–10). Both contained 120 mM NaCl and 0.1 mM DTPA.; Folded, FAD-bound. The single shuttle cysteine is reduced (free thiol, confirmed by AMS modification), and the active-site cysteines are replaced by serine.

The target of the next data set is Cys33 (UniProt position 33, KPSRSCNTLLD). The data set is described as above. The settings on record: 25°C; I = 0.15 M (constant ionic strength buffers, 120 mM NaCl); 15 mM acetic acid, 15 mM Mes and 30 mM Tris (pH 3.5–9.0), or 30 mM Aces, 15.6 mM Tris and 15.6 mM ethanolamine (pH 5.7–10). Both contained 120 mM NaCl and 0.1 mM DTPA.; Folded, FAD-bound. The single shuttle cysteine is reduced (free thiol, confirmed by AMS modification), and the active-site cysteines are replaced by serine.

Data set [1] concerns the molecule itself. The data set can be described thus: SEC; Superdex 75 in buffer A (50 mM Tris/HCl pH 7.4, 150 mM NaCl); elution position compared with the Erv1 tetramer.
Data set [2] concerns the molecule itself. The data set can be described thus: non-reducing SDS/PAGE (intermolecular disulfide-bonded dimer); gel-filtration fractions of the purified proteins on Tris/Tricine SDS/PAGE (16% gel) under reducing and non-reducing conditions.
The target in the data set “Erv1^CXXS (Erv1C33S)” is B1. The data set can be described thus: mixed disulfide trapping, non-reducing SDS/PAGE and Western blot; single cysteine mutants pre-treated with 2 mM TCEP, exchanged to buffer A, incubated at 5 uM each for 20 min at room temperature (stopped with 2.5 mM AMS, or 1 mM DTT as reducing control), or 50 uM Mia40 and 5 uM Erv1 over 10 min (stopped with 20 mM IAM); detected with an antibody against Erv1. The following applies: both partners purified. Background: Immunoblotting shows a protein as a band on a membrane.

In the data set “Erv1^SXXC (Erv1C30S)” the target is B5. Described as above. The settings on record: both partners purified.
Data set [3] deals with the molecule itself. The experiment in a line: SEC-MALS; Superdex 200 10/30 in buffer A (150 mM NaCl, 50 mM Tris/HCl pH 7.4), in-line DAWN EOS photometer and Optilab rEX refractor; the two gel-filtration peaks of the protein.

In the data set with Cys30, “Mitochondrial FAD-linked sulfhydryl (thiol) oxidase Erv1, triple mutant Erv1^CSSS (C33S/C130S/C133S) (Saccharomyces cerevisiae; C33S;C130S;C133S)” came in with a pKa of 8.39±0.12.

Regarding “Mitochondrial FAD-linked sulfhydryl (thiol) oxidase Erv1, triple mutant Erv1^SCSS (C30S/C130S/C133S) (Saccharomyces cerevisiae; C30S;C130S;C133S)”, the pKa with Cys33 is 8.41±0.06.

As for B1, in data set [1], the “stoichiometry N” value amounted to 4.

With B2, in data set [2], the binding result is recorded as “binds”.

B3: the binding result in data set [2] is recorded as “binds”.

Regarding B4, the binding result with Erv1^CXXS (Erv1C33S) and with Erv1^SXXC (Erv1C30S) was “binds” each time.

B5: in data set [3], the “stoichiometry N” value is 4 and 2.

For the molecule B6, the binding result in the data set with Erv1^CXXS (Erv1C33S) and with Erv1^SXXC (Erv1C30S) was “binds” throughout.

As usually defined, the pKa is the negative logarithm of the acid dissociation constant. Low readings indicate a stronger acid or weaker base, high ones a weaker acid or stronger base. As a reminder, the stoichiometry N is a count of units in the complex or per binding partner.
